PMC6123711, “Conformational signatures in β-arrestin2 reveal natural biased agonism at a G-protein-coupled receptor” (Communications Biology, 2018)

Legend:
[1] = system: Galr2; assay: Total inositol phosphate production; format: cell-based, human; conditions: for Log(τ/KA), Total inositol phosphate: HEK293 cells, human Galr2, 40 min at 37 °C, operational model (Eq. 2)
Source text: Galr2 is primarily coupled to the Gαq-protein which activates the phospholipase C/protein kinase C pathway for inositol phosphate production. We measured G-protein activation in HEK293 cells transiently expressing Galr2, using the serum response element-luciferase (SRE-Luc) gene reporter assay[10],[37] and for a more specific monitoring of Gαq-protein activity we also measured total inositol phosphate production. […] However, some differences were observed between SRE-Luc activity and total inositol phosphate production in the rank order of potency of the tested ligands. […] Phosphorylation of extracellular signal-regulated protein kinases 1 and 2 (pErk1/2) is either G-protein or β-arrestin dependent. To distinguish Gαq-protein- and β-arrestin1/2-dependent Erk1/2 signaling, we examined ligand-stimulated Erk1/2 phosphorylation in three different HEK293 cell lines, wild type, Gαq/11-knockout, and β-arrestin1/2-knockout cells. All three ligands induced high levels of Erk1/2 phosphorylation dose-dependently in wild-type HEK293 cells.
Fig. 5 Galr2 agonists display different Gαq-protein-dependent signaling and pErk1/2. The ability of increasing concentrations of agonists to induce a SRE-Luc activity and b total inositol phosphate production. c Representative western blot showing ligand-induced phosphorylation of Erk1/2 from wild-type (HEK293 WT), Gαq/11-, and β-arrestin1/2-knockout HEK293 cells expressing Galr2 (original blots are presented in Supplementary Figure 4). pErk1/2 and total Erk levels were determined at 5 min after stimulation of different concentrations of three ligands. Western blot band intensities corresponding to each concentration were quantified using Image studio ^TM Software. […] Data are the mean ± s.e.m. values of two independent experiments
Galr2 activation was monitored using measurement of total inositol phosphate (IP + IP2 + IP3) production in HEK293 cells expressing human Galr2. For this assay, cells were seeded in 12-well plates at a density of 2.5 × 10^5 cells per well. The next day, the cells were transiently transfected with 1 μg/well plasmid containing human Galr2, using the Lipofectamine 2000 (Invitrogen) transfection reagent. The day after transfection, the cells were incubated in M199 medium containing 1% FBS, 1% L-glutamine, 1% penicillin/streptomycin, and 1 μCi/well myo-^3H inositol for 20 h. After a 30-min incubation in buffer A (140 mM NaCl, 20 mM Hepes, 4 mM KCl, 8 mM D-glucose, 1 mM MgCl2, 1 mM CaCl2, 1 mg/ml free fatty acid bovine serum albumin, and 10 mM LiCl at pH 7.2), the cells were exposed to the agonist for 40 min at 37 °C. […] The radioactivity of the samples was measured using a TRI carb 3100TR liquid scintillation analyzer (Packard).

[2] = system: β-arrestin1–Galr2 interaction (Galr2); assay: β-Arrestin1 recruitment using NanoBit technology; format: cell-based, human; conditions: for Log(τ/KA), β-Arrestin1: HEK293 cells, luminescence at 5 min after agonist, operational model (Eq. 2); for Log(τ/KA), β-Arrestin1 / ΔLog(τ/KA), β-Arrestin1: mean ± s.e.m. of three experiments in triplicate; for ΔLog(τ/KA), β-Arrestin1: normalized to Galanin (reference agonist), in parenthesis
Source text: The β-arrestin recruitment assays were developed based on a structural complementation assay using NanoBit technology. Briefly, NanoBit technology is a system that basically consists of Nano luciferase (Nluc), which is a small protein that catalyzes a bright luminescent reaction. To create a complementation system, Nluc was separated into two subunits that individually produce very little enzymatic activity. […] Because of this low affinity for each other, these two fragments can bind when they are in close proximity. The interaction between the LgBit and the SmBit can be driven by the interactions of the fusion partners, allowing them to study protein–protein interaction in live cells. As the interaction is reversible, the association and dissociation can be monitored. There is no lag time in the loss of luminescence, and so the immediate detection allows for accurate assessment of temporal dynamics. […] To accurately monitor β-arrestin recruitment, four plasmid combinations between LgBit and SmBit with the fusion partners Galr2 and β-arrestins were screened. The plasmid combination with the highest luminescence signal was chosen for further studies (Fig. 2a, Supplementary Fig. 1). Using data points at 5 min after ligand stimulation, we obtained dose–response curves that corresponded to β-arrestin1/2 recruitment (Fig. 2d, e, Supplementary Fig. 2).
Fig. 2 The effect of different endogenous ligands in β-arrestin1/2 recruitment. a Schematic representation of the structural complementation assay used to monitor β-arrestin1/2–Galr2 interactions. Kinetic traces of β-arrestin1 (b) and β-arrestin2 (c) recruitment after Galr2 activation with 1 μM of three different agonists. Dose–response curves for recruitment of β-arrestin1 (d), and β-arrestin2 (e). Luminescence signal intensity obtained at 5 min after agonist stimulation was measured. […] The results are expressed as mean ± s.e.m. of three experiments performed in triplicate; each triplicate was averaged before calculating the s.e.m. The arrows indicate the time at which the cells were treated with the different ligands
Quantification of bias between each pathway was performed using Galanin as a reference ligand. All incubations for the different signaling assays were performed in serum-free medium to prevent peptide degradation.
HEK293 cells were obtained from the American Type Culture Collection (ATCC, CRL-1573; Manassas, VA, USA). They were maintained in Dulbecco’s modified Eagle’s medium (DMEM) supplemented with 10% fetal bovine serum (FBS), 100 U/ml penicillin G, and 100 μg/ml streptomycin (Invitrogen; Carlsbad, CA, USA). During the experiments, the cells were tested for mycoplasma using a Universal Mycoplasma Detection Kit (ATCC). At 1 day before transfection, the cells were seeded in 96-well plates at a density of 2.5 × 10^4 cells per well. A mixture containing 50 ng β-arrestin construct containing the LgBit or SmBit and 50 ng Galr2 containing one of the two domains of Nluc and 0.2 μl Lipofectamine 2000 (Invitrogen) was prepared and added to each well. We tested four β-arrestin-Galr2 spatial orientations. […] After a 10-min incubation, 25 μl substrate (furimazine) was added and once every minute subsequent luminescence measurements were taken for 10 min for signal stabilization. A total of 10 μl ligand was then added to each well and luminescence measurements were recorded immediately and once every minute for 1 h (Synergy 2 Multi-Mode Microplate Reader BioTek, Winooski, VT, USA).

[3] = mean ± s.e.m. of three experiments in triplicate

Molecule	Log(τ/KA), Total inositol phosphate [1, 3]	ΔLog(τ/KA), Total inositol phosphate ([1]; normalized to Galanin (reference agonist), in parenthesis, mean ± s.e.m. of three experiments in triplicate)	Log(τ/KA), β-Arrestin1 [2]	ΔLog(τ/KA), β-Arrestin1 [2]	efficacy in total inositol phosphate production ([1]; HEK293 cells transiently expressing Galr2)	agonism in β-arrestin1 recruitment ([2]; dose–response, data at 5 min after ligand stimulation, compared with Galanin)
Galanin [reference compound]	4.20 ± 0.03	0.00 ± 0.02	7.18 ± 0.01	0.00 ± 0.01	–	–
Spexin (peptide, UniProt Q9BT56 27-116, looked up, Spexin, endogenous peptide ligand of Galr2 and Galr3; synthesized by AnyGen) Spexin: APQRLLERRNWTPQAMLYLKGAQGRRFISDQSRRKDLSDRPLPERRSPNPQLLTIPEAATILLASLQKSPEDEEKNFDQTRFLEDSLLNW	4.40 ± 0.03	–	6.60 ± 0.08	−0.60 ± 0.01	substantially higher efficacy	partial agonists
